Source: patent US20160138042A1 (COMMONWEALTH SCIENTIFIC AND INDUSTRIAL RESEARCH ORGANISATION, published 2016)

B1: Sr33 CC1-225 (CC-NB domain of Sr33) (other)
chain: MDIVTGAIAKLIPKLGELLVGEYKLHKGVKKNIEDLLKELKTMNAALIKIGEVPPDQLDSQDKLWADEVRELSYVIEDAVDKFLVRVHGVEPDDNTNGFKGLMKRTTKLLKKVVDKHGIAHAIKDIKKELQEVAARRDRNKFDGIASIPTEAIDPRLRALYIEAAELVGIYGKRDQELMSLLSLEGDDASTKKLKKVSIVGFGGLGKTTLAKAVYEKIKGDFDCH
notes: Expressed as both bait and prey in yeast two-hybrid; The fused GAL4 domains are not included; also called Sr33 CC225
B2: Sr33 CC1-125 (truncated portion of the CC domain of Sr33) (other)
chain: MDIVTGAIAKLIPKLGELLVGEYKLHKGVKKNIEDLLKELKTMNAALIKIGEVPPDQLDSQDKLWADEVRELSYVIEDAVDKFLVRVHGVEPDDNTNGFKGLMKRTTKLLKKVVDKHGIAHAIKD
notes: Expressed as both bait and prey in yeast two-hybrid; The fused GAL4 domains are not included; also called Sr33 CC125

Target: the molecule itself
Assay: directed yeast two-hybrid, self-association (same fragment as bait and prey)

| Protein | binding result |
| --- | --- |
| B1 | no binding |
| B2 | no binding |
